Our source for the non-specific binding call values is the emibetuzumab library of Makowski et al. (2022).

B1: VH:VL chains; a variant is named by its letters at X, in order (parent)
chain 1: QVQLVQSGAEVKKPGASVKVSCKASGYTFTDYXMHWVRQAPGQGLEWMGXVNPNXXXTTYNQKFEGRVTMTTDTSTSTAYMELRSLRSDDTAVYYCARXNXLDXWGQGTTVTVSS
chain 2: DIQMTQSPSSLSASVGDRVTITCSVSSSVSSIYLHWYQQKPGKAPKLLIYSTSNLASGVPSRFSGSGSGTDFTLTISSLQPEDFATYYCQVYSGYPLTFGGGTKVEIK

The variants in the data set derive from B1. As to the kind of experiment: yeast display scFab, FACS + sequencing. The method in brief:
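Non-specific binding was called from deep sequencing of sorted yeast cells displaying a heavy-chain CDR mutant scFab library. Cells labelled with anti-Myc and biotinylated ovalbumin (260 μg/mL in PBSB, 3 h, room temperature) or soluble membrane proteins (130 μg/mL, 20 min on ice) were FACS-sorted, collecting the top 25% and bottom 10% of binders from two replicates. A sequence was positive when present in ≥3 of 4 pooled positive samples and absent from all negatives, and negative under the converse rule.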
With ARRGSDVA, the non-specific binding call is “no binding”. As for YRRGGAGV, the entry is “binds”.

For YRRGGAGY, the non-specific binding call is “binds”. The result for YRRGGAGF reads “binds”. As for VRRGSFGA, the entry is “binds”; as for DRRRGSGA, “binds”; as for YRRGSSLY, “binds”. The result for YRRGSSLF reads “binds”. Take YRRGSSLV: the non-specific binding call was “binds”. The result for YRRGSSLS reads “binds”; that for FRRRGAAD, “binds”. In the case of FRRRGAAA, the non-specific binding call is given as “binds”. As for YRRRGSLV, the entry is “binds”; as for YRRRGSLA, “binds”.

For the variant YRRRGSLF, the non-specific binding call is “binds”. As for YRRRGSLS, the entry is “binds”; as for YRRRGSLD, “binds”. As for YRRRGSLY, the entry is “binds”; as for YRRKGALV, “binds”. As for YRRRGAVA, the entry is “binds”; as for YRRRGAVD, “binds”; as for YRRRGAVY, “binds”. Take YRRRGAVF: the non-specific binding call is “binds”. The result for YRRGGSAA reads “binds”; that for YRRGGSAV, “binds”.

Take YRRGSAVD: the non-specific binding call is listed as “binds”. With YRRGSAVA, the non-specific binding call was “binds”.

Turning to YRRGSAVY, the non-specific binding call is on record as “binds”. As for YRRGSYVY, the entry is “binds”; as for FRRRGAVA, “binds”. As for FRRRGAVD, the entry is “binds”.

On to YRRRGSWS, for which the non-specific binding call was “binds”. With YRRRGSWV, the non-specific binding call is reported as “binds”. As for YRRRGSWD, the entry is “binds”; as for YRRRGSWA, “binds”; as for YRRGTSVD, “binds”.

With YRRKGSVD, the non-specific binding call is “binds”. As for YRRGGAWV, the entry is “binds”; as for YRRGGAWA, “binds”; as for YRRGGAWS, “binds”. The result for YRRGGAWY reads “binds”; that for YRRGGAWD, “binds”. The result for YRRGGSVS reads “binds”. In the case of YRRGGSVF, the non-specific binding call is “binds”. As for YRRGGSVA, the entry is “binds”. For YRRGGSVD, the non-specific binding call was “binds”. As for VRRRGSAF, the entry is “binds”; as for YRRGSASD, “binds”. The result for YRRGSASV reads “binds”; that for YRRGSASS, “binds”; that for YRRGGALD, “binds”. As for YRRGGALV, the entry is “binds”; as for YRRGGALA, “binds”.

As to ARRGGSVD, the non-specific binding call was “binds”. As for YRRGSSVV, the entry is “binds”. The result for YRRGSSVS reads “binds”. The result for YRRGSSVF reads “binds”; that for VRRKSSSV, “binds”. YRRRGFWY: the non-specific binding call is “binds”. As for VRRGSAGD, the entry is “binds”. As for VRRGSAGS, the entry is “binds”; as for YRRRGDGV, “binds”. As for YRRRGDGY, the entry is “binds”; as for YRRRGDGD, “binds”; as for YRRRGDLD, “binds”. In the case of YRRGSFGA, the non-specific binding call is on record as “binds”. The result for ARRGSDLA reads “no binding”. Regarding YRRRGDWY, the non-specific binding call is reported as “binds”. As for YRRRGDWD, the entry is “binds”. For YRRRGDWA, the non-specific binding call is given as “binds”. The result for YRRGSSSA reads “binds”.

On to YRRGSSSV, for which the non-specific binding call was “binds”. The result for YRRGGFGA reads “binds”; that for YRRGGFGV, “binds”. The result for YRRRGVAA reads “binds”; that for YRRRGVAD, “binds”; that for FRRRGDWY, “binds”.

As for VRRGSSLF, the non-specific binding call is reported as “binds”. With FRRGSSAA, the non-specific binding call is “binds”.

With FRRGSSAV, the non-specific binding call was “binds”.

Take FRRRGALD: the non-specific binding call is listed as “binds”.

FRRKDDWA: the non-specific binding call is given as “binds”. The result for FRRGGAGD reads “binds”; that for FRRGGAGY, “binds”; that for FRRGSAVA, “binds”. As for FRRGGAVD, the entry is “binds”. The result for FRRGGAVV reads “binds”; that for YRRGGASD, “binds”.

With YRRGGASA, the non-specific binding call was “binds”.

For the variant SRRRGSAA, the non-specific binding call was “binds”.

Regarding VRRRGSLF, the non-specific binding call is listed as “binds”.

For YRRRGAWV, the non-specific binding call is “binds”. The result for YRRRGAWD reads “binds”. With YRRRGAWF, the non-specific binding call is recorded as “binds”. The result for YRRRGAWS reads “binds”. The result for YRRRGAWA reads “binds”; that for YRRGSALS, “binds”.

For YRRGSALY, the non-specific binding call was “binds”.

For ARRRGSAA, the non-specific binding call is recorded as “binds”. As for YRRGSVGA, the non-specific binding call is on record as “binds”.

Consider YRRGSVGV, for which the non-specific binding call is recorded as “binds”. Take FRRRGAWA: the non-specific binding call is recorded as “binds”.

As for FRRRGAWY, the non-specific binding call was “binds”. As to VRRGSSAS, the non-specific binding call was “binds”.

As to VRRGSSAD, the non-specific binding call is on record as “binds”. The result for VRRGSSAV reads “binds”.

For the variant VRRGSSAF, the non-specific binding call is “binds”. As for FRRRGSAA, the entry is “binds”; as for FRRRGSAD, “binds”.

With YRRRGAGY, the non-specific binding call was “binds”.

As to YRRRGAGV, the non-specific binding call was “binds”.

In the case of YRRRGAGF, the non-specific binding call is recorded as “binds”.

Take YRRRGAGD: the non-specific binding call is on record as “binds”.

Consider YRRRGAGA, for which the non-specific binding call is given as “binds”.

On to YRRRGASF, for which the non-specific binding call is reported as “binds”. The result for YRRRGASA reads “binds”; that for YRRRGASD, “binds”; that for YRRRGASV, “binds”. As for YRRRGASS, the entry is “binds”; as for SRRGGYVS, “binds”; as for FRRGGSLD, “binds”.

As for SRRRGAWY, the non-specific binding call is “binds”.

As to YRRGGAAV, the non-specific binding call was “binds”. The result for YRRGGAAS reads “binds”. The result for YRRGGAAY reads “binds”; that for YRRGGAAA, “binds”.

For the variant YRRGGAAF, the non-specific binding call is “binds”. The result for YRRGGAAD reads “binds”. The result for DRRKAFSA reads “binds”; that for YRRRDSSA, “binds”.
